# B1: Beta-crystallin A4 (Homo sapiens), P53673 (parent)
# chain: MTLQCTKSAGPWKMVVWDEDGFQGRRHEFTAECPSVLELGFETVRSLKVLSGAWVGFEHAGFQGQQYILERGEYPSWDAWGGNTAYPAERLTSFRPAACANHRDSRLTIFEQENFLGKKGELSDDYPSLQAMGWEGNEVGSFHVHSGAWVCSQFPGYRGFQYVLECDHHSGDYKHFREWGSHAPTFQVQSIRRIQQ
# partner: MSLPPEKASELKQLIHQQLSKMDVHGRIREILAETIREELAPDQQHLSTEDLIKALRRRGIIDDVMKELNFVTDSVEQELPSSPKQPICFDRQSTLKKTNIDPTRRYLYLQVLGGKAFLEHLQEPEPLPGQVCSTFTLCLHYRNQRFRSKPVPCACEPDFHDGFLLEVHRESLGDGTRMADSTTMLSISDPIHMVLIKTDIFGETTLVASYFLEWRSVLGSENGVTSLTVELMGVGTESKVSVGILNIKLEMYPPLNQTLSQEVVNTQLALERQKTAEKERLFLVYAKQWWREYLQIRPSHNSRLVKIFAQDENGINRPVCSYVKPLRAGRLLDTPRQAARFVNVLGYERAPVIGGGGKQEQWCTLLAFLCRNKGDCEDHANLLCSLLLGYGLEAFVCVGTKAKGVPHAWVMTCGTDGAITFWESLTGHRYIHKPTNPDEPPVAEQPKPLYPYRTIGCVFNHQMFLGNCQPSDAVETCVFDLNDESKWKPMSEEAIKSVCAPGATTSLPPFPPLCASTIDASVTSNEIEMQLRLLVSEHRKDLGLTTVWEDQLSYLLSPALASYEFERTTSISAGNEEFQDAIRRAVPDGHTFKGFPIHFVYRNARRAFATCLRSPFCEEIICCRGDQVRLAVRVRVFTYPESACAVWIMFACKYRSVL
# B2: Serotonin N-acetyltransferase (Homo sapiens), Q16613 (parent)
# chain: MSTQSTHPLKPEAPRLPPGIPESPSCQRRHTLPASEFRCLTPEDAVSAFEIEREAFISVLGVCPLYLDEIRHFLTLCPELSLGWFEEGCLVAFIIGSLWDKERLMQESLTLHRSGGHIAHLHVLAVHRAFRQQGRGPILLWRYLHHLGSQPAVRRAALMCEDALVPFYERFSFHAVGPCAITVGSLTFMELHCSLRGHPFLRRNSGC
# B3: Chorion-specific transcription factor GCMb (Homo sapiens), O75603 (parent)
# chain: MPAAAVQEAVGVCSYGMQLSWDINDPQMPQELALFDQFREWPDGYVRFIYSSDEKKAQRHLSGWAMRNTNNHNGHILKKSCLGVVVCTQACTLPDGSRLQLRPAICDKARLKQQKKACPNCHSALELIPCRGHSGYPVTNFWRLDGNAIFFQAKGVHDHPRPESKSETEARRSAIKRQMASFYQPQKKRIRESEAEENQDSSGHFSNIPPLENPEDFDIVTETSFPIPGQPCPSFPKSDVYKATCDLATFQGDKMPPFQKYSSPRIYLPRPPCSYELANPGYTNSSPYPTLYKDSTSIPNDTDWVHLNTLQCNVNSYSSYERSFDFTNKQHGWKPALGKPSLVERTNHGQFQAMATRPYYNPELPCRYLTTPPPGAPALQTVITTTTKVSYQAYQPPAMKYSDSVREVKSLSSCNYAPEDTGMSVYPEPWGPPVTVTRAASPSGPPPMKIAGDCRAIRPTVAIPHEPVSSRTDEAETWDVCLSGLGSAVSYSDRVGPFFTYNNEDF
# partner: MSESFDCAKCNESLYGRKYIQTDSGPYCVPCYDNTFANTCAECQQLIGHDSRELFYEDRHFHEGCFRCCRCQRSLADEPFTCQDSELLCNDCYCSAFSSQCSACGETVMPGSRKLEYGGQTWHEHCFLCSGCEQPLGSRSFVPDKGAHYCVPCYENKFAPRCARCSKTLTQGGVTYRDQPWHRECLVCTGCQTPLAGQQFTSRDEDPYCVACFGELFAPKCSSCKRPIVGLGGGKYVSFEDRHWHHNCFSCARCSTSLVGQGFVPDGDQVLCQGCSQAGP
# B4: Tumor necrosis factor receptor superfamily member 13B (Homo sapiens), O14836 (parent)
# chain: MSGLGRSRRGGRSRVDQEERFPQGLWTGVAMRSCPEEQYWDPLLGTCMSCKTICNHQSQRTCAAFCRSLSCRKEQGKFYDHLLRDCISCASICGQHPKQCAYFCENKLRSPVNLPPELRRQRSGEVENNSDNSGRYQGLEHRGSEASPALPGLKLSADQVALVYSTLGLCLCAVLCCFLVAVACFLKKRGDPCSCQPRSRPRQSPAKSSQDHAMEAGSPVSTSPEPVETCSFCFPECRAPTQESAVTPGTPDPTCAGRWGCHTRTTVLQPCPHIPDSGLGIVCVPAQEGGPGA
# B5: EF-hand domain-containing protein 1 (Homo sapiens), Q5JVL4 (parent)
# chain: MVSNPVHGLPFLPGTSFKDSTKTAFHRSQTLSYRNGYAIVRRPTVGIGGDRLQFNQLSQAELDELASKAPVLTYGQPKQAPPADFIPAHVAFDKKVLKFDAYFQEDVPMSTEEQYRIRQVNIYYYLEDDSMSVIEPVVENSGILQGKLIKRQRLAKNDRGDHYHWKDLNRGINITIYGKTFRVVDCDQFTQVFLESQGIELNPPEKMALDPYTELRKQPLRKYVTPSDFDQLKQFLTFDKQVLRFYAIWDDTDSMYGECRTYIIHYYLMDDTVEIREVHERNDGRDPFPLLMNRQRVPKVLVENAKNFPQCVLEISDQEVLEWYTAKDFIVGKSLTILGRTFFIYDCDPFTRRYYKEKFGITDLPRIDVSKREPPPVKQELPPYNGFGLVEDSAQNCFALIPKAPKKDVIKMLVNDNKVLRYLAVLESPIPEDKDRRFVFSYFLATDMISIFEPPVRNSGIIGGKYLGRTKVVKPYSTVDNPVYYGPSDFFIGAVIEVFGHRFIILDTDEYVLKYMESNAAQYSPEALASIQNHVRKREAPAPEAESKQTEKDPGVQELEALIDTIQKQLKDHSCKDNIREAFQIYDKEASGYVDRDMFFKICESLNVPVDDSLVKELIRMCSHGEGKINYYNFVRAFSN
# partner: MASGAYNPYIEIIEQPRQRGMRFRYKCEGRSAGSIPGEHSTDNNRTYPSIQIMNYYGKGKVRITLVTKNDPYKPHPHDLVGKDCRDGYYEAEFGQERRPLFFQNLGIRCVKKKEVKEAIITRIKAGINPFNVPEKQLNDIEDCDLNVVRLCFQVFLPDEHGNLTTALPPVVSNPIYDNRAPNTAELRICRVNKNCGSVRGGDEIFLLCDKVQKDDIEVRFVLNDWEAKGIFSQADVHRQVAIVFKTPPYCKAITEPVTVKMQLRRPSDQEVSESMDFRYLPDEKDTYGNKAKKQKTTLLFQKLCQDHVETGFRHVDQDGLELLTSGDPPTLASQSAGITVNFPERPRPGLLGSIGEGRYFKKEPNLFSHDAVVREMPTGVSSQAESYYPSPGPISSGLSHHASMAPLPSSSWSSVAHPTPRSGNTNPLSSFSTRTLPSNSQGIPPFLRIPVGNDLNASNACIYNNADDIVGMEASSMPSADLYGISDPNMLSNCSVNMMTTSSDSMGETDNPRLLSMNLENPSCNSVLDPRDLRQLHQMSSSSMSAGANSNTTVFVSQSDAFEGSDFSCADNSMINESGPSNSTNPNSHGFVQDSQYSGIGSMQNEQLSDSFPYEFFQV
# Variants of: B1
# Details: with cep76_human CEP76, Q8TAP6
row,effect of a mutation on the interaction,Variant
1,disrupting interaction,F94S

# Variants of: B2
# Details: with bhe40_human BHLHE40, O14503
# Chain of bhe40_human BHLHE40, O14503 (O14503 whole entry): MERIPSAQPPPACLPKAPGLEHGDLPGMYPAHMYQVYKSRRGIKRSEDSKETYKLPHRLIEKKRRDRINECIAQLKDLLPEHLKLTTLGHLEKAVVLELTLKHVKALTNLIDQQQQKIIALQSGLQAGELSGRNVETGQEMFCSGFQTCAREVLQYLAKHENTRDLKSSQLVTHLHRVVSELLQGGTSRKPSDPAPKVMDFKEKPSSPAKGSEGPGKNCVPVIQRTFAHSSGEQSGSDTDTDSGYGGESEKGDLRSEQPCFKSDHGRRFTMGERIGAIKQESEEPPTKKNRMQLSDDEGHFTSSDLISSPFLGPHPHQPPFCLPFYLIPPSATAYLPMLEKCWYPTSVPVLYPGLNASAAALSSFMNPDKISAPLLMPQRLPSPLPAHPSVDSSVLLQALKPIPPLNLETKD
row,effect of a mutation on the interaction,Variant
1,disrupting interaction,A129T

# Variants of: B3
# Details: with fhl3_human FHL3, Q13643
row,effect of a mutation on the interaction,Variant
1,disrupting interaction,R47L

# Variants of: B4
# Details: with sgta_human SGTA
row,effect of a mutation on the interaction,Variant
1,disrupting interaction,E125R

# Variants of: B5
# Details: with rel_human REL
row,effect of a mutation on the interaction,Variant
1,disrupting interaction,P77T

# Variants of: B5
# Details: with rel_human REL
# Remark: another data set of the same source
row,effect of a mutation on the interaction,Variant
1,disrupting interaction,T508R

# Variants of: B5
# Details: with rel_human REL
# Remark: another data set of the same source
row,effect of a mutation on the interaction,Variant
1,disrupting interaction,R221H

# Variants of: B5
# Details: with rel_human REL
# Remark: another data set of the same source
row,effect of a mutation on the interaction,Variant
1,disrupting interaction,A394S

# Source: IntAct's records for PubMed 25416956
